Results on one molecule are retold here after patent JP2019026625A (dated 2019).

The assay concerns the target T1, FLAGタグとイヌCD20の融合タンパク (Jurkat/cCD20 に過剰発現) (イヌ (dog), UniProt Q3C2E2 1-297).
T1 construct: whole, on cells; Overexpressed in Jurkat cells by retroviral transduction (pMx-IP); Used whole on cells for flow cytometry and as 1% NP40 cell lysate for immunoprecipitation; also called canine CD20-FLAG; not shown: FLAG tag added at the C-terminus
T1 sequence (looked up): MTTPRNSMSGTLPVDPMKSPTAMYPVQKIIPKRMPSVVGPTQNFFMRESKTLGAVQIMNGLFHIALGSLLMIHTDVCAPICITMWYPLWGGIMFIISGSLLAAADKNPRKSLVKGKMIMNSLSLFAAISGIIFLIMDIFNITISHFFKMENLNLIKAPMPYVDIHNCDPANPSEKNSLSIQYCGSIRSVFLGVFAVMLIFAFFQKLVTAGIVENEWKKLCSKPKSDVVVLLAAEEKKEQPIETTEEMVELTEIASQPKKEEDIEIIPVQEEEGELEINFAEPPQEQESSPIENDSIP
The experiment in a line: flow cytometry on Jurkat/cCD20 cells, secondary antibody. (Flow cytometry measures light scatter and fluorescence of single cells or particles in a stream.)

B1: 4E1-7抗体 (イヌCD20に対するラットモノクローナル抗体) (antibody, V domains shown)
VH: EVQLVESGGGLVQPGASLKLSCVASGFTFNDYWMSWVRQTPGKTMEWIGDIKYDGSYTNYAPSLKNRFTISRDNAKSTLYLQMSNVRSEDTATYYCTREAYYYSGDYWGQGVMVTVSS
VL: DIVLTQSPALAVSLGQRATISCKTNQNVDYYGNSYMHWYQQKPGQQPKLLIYLASNLASGIPARFSGRGSGTDFTLTIDPVEADDTATYYCQQSRNLPYTFGAGTKLELKR
notes: also called 4E1-7 antibody
Turning to B1, the binding result is reported as “binds”.
